# B1: N-TIMP2-PAT100 (protein)
# chain: CSCSPVHPQQAFCNADVVIRAKAVSEKEVDSGNDIYGNPIKRIQYEIKQIKMFKGPEDIEFIYTAPSSAVCGVSLDVGGKKEYLIAGKAEGDGKMHITLCDFIVPWDTLSTTQKKSLNHRYQMGCETAPAAPATPAPTAPTPTPAAPAPTTPATPAPTPAAPAPAPTAPTAPAAPTAPATPAAPTTPTPTTPTPATPTPTAPAPATPTTPTPTAPAAPTPAPTTPA
# B2: N-TIMP2-PAT200 (protein)
# chain: CSCSPVHPQQAFCNADVVIRAKAVSEKEVDSGNDIYGNPIKRIQYEIKQIKMFKGPEDIEFIYTAPSSAVCGVSLDVGGKKEYLIAGKAEGDGKMHITLCDFIVPWDTLSTTQKKSLNHRYQMGCEATPTPAPTAPTTPTPTPTTPAPTTPTTPATPAPTTPATPAPTPATPTPAAPAPTTPTPAAPAPTPATPTAPAPTTPTAPTAPTPATPATPAAPTPTPTTPTTPTAPAAPTPTAPTAPAPTAPTAPTAPATPAAPATPTPAPTAPATPTPAAPTTPTAPTPTPTPAPATPAAPAPTPATPAAPTTPAAPTAPAAPTTPTPT
# B3: N-TIMP2 (WT N-terminal domain of TIMP2 containing internal FLAG-tag, c-myc-tag and His-tag) (domain or fragment)
# chain: CSCSPVHPQQAFCNADVVIRAKAVSEKEVDSGNDIYGNPIKRIQYEIKQIKMFKGPEDIEFIYTAPSSAVCGVSLDVGGKKEYLIAGKAEGDGKMHITLCDFIVPWDTLSTTQKKSLNHRYQMGCE
# Biological target: high-stability mutant of the MMP-9 catalytic domain lacking the fibronectin-like domain (MMP9CAT*) (human) (UniProt P14780)
# Test: enzymatic activity inhibition assay
row,Ki [pM],Binder
1,240,B1
2,590,B2
3,320,B3

# Source: paper PMC11230438
